What was measured:
Assay in all cases: capture ELISA: Ab1 on anti-human IgG Fc, His-tagged receptor at 0.2 µg/mL, anti-His HRP
[1] = target: T1, hexahistidine tagged human IL-4Rα ECD K2D (human, UniProt P24394 26-232)
T1 construct: not shown: hexahistidine tag
Excerpt: (§1) Example 2d. […] Briefly, thirty surface amino acid residue substitutions were introduced individually into hexahistidine tagged human IL-4Rα extra cellular domain (ECD) as follows: K2D, E6R, K22D, P26R, T31R, F41A, L42G, L43G, E45R, E52R, G56R, D66R, A71R, Q82G, K87D, E94R, H107A, D108R, P124R, D125R, D143R, R148D, L155R, R160D, S164R, S168R, Q181R, P192R, K195D, or H197G. Each mutant protein having a single amino acid residue substitution as described above was transiently expressed in CHO cells and purified using standard immobilized metal affinity chromatography techniques. […] The plates were then washed 3 times with PBST and the exemplified human IL-4Rα antibody was added to the wells at a final concentration of 1 μg/mL in PBS-casein and incubated for 1 hour at room temperature. The plates were washed 3 times with PBST, the IL-4Rα mutant proteins were serially diluted 5-fold from 1 μg/mL for 3 points. in PBS-casein and added to the plate at 50 μL/well and incubated for 1 hour at room temperature. The plates were washed 3 times with PBST and a 1000-fold dilution of anti-histidine tag antibody HRP conjugate (R&D Systems, Cat. #MAB050H) in PBS-casein was added and incubated for 45 minutes at room temperature. The plates were washed 3 times, TMB substrate (Pierce, Cat. #34028) was added per manufacturer instructions, the reaction was quenched with H₂SO₄, and absorbance was read at 450 nm on an ELISA plate reader.

[2] = target: T2, hexahistidine tagged human IL-4Rα ECD E6R (human, UniProt P24394 26-232)
T2 construct: not shown: hexahistidine tag
Excerpt: as §1

[3] = target: T3, hexahistidine tagged human IL-4Rα ECD P26R (human, UniProt P24394 26-232)
T3 construct: not shown: hexahistidine tag
Excerpt: as §1

[4] = target: T4, hexahistidine tagged human IL-4Rα ECD F41A (human, UniProt P24394 26-232)
T4 construct: not shown: hexahistidine tag
Excerpt: as §1

[5] = target: T5, hexahistidine tagged human IL-4Rα ECD L42G (human, UniProt P24394 26-232)
T5 construct: not shown: hexahistidine tag
Excerpt: as §1

[6] = target: T6, hexahistidine tagged human IL-4Rα ECD L43G (human, UniProt P24394 26-232)
T6 construct: not shown: hexahistidine tag
Excerpt: as §1

[7] = target: T7, hexahistidine tagged human IL-4Rα ECD E45R (human, UniProt P24394 26-232)
T7 construct: not shown: hexahistidine tag
Excerpt: as §1

[8] = target: T8, hexahistidine tagged human IL-4Rα ECD G56R (human, UniProt P24394 26-232)
T8 construct: not shown: hexahistidine tag
Excerpt: as §1

[9] = target: T9, hexahistidine tagged human IL-4Rα ECD Q82G (human, UniProt P24394 26-232)
T9 construct: not shown: hexahistidine tag
Excerpt: as §1

[10] = target: T10, hexahistidine tagged human IL-4Rα ECD K87D (human, UniProt P24394 26-232)
T10 construct: not shown: hexahistidine tag
Excerpt: as §1

[11] = target: T11, hexahistidine tagged human IL-4Rα ECD H107A (human, UniProt P24394 26-232)
T11 construct: not shown: hexahistidine tag
Excerpt: as §1

[12] = target: T12, hexahistidine tagged human IL-4Rα ECD P124R (human, UniProt P24394 26-232)
T12 construct: not shown: hexahistidine tag
Excerpt: as §1

[13] = target: T13, hexahistidine tagged human IL-4Rα ECD D125R (human, UniProt P24394 26-232)
T13 construct: not shown: hexahistidine tag
Excerpt: as §1

[14] = target: T14, hexahistidine tagged human IL-4Rα ECD R148D (human, UniProt P24394 26-232)
T14 construct: not shown: hexahistidine tag
Excerpt: as §1

[15] = target: T15, hexahistidine tagged human IL-4Rα ECD S168R (human, UniProt P24394 26-232)
T15 construct: not shown: hexahistidine tag
Excerpt: as §1

[16] = target: T16, hexahistidine tagged human IL-4Rα ECD P192R (human, UniProt P24394 26-232)
T16 construct: not shown: hexahistidine tag
Excerpt: as §1

T6 sequence (P24394 26-232 L68G): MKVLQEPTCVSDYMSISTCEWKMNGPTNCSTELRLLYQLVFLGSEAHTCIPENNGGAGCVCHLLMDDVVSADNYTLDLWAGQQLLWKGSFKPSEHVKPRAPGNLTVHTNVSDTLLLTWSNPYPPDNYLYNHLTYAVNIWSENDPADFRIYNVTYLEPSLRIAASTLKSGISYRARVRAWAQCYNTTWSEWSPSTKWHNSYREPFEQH
T11 sequence (P24394 26-232 H132A): as the sequence (P24394 26-232 L68G) above, with G43L, H107A counted along it
T3 sequence (P24394 26-232 P51R): as the sequence (P24394 26-232 L68G) above, with P26R, G43L counted along it
T13 sequence (P24394 26-232 D150R): as the sequence (P24394 26-232 L68G) above, with G43L, D125R counted along it
T1 sequence (P24394 other isoform, or with tags, fused parts or gaps): as the sequence (P24394 26-232 L68G) above, with K2D, G43L counted along it
T16 sequence (P24394 26-232 P217R): as the sequence (P24394 26-232 L68G) above, with G43L, P192R counted along it
T2 sequence (P24394 other isoform, or with tags, fused parts or gaps): as the sequence (P24394 26-232 L68G) above, with E6R, G43L counted along it
T8 sequence (P24394 26-232 G81R): as the sequence (P24394 26-232 L68G) above, with G43L, G56R counted along it
T10 sequence (P24394 26-232 K112D): as the sequence (P24394 26-232 L68G) above, with G43L, K87D counted along it
T12 sequence (P24394 26-232 P149R): as the sequence (P24394 26-232 L68G) above, with G43L, P124R counted along it
T14 sequence (P24394 26-232 R173D): as the sequence (P24394 26-232 L68G) above, with G43L, R148D counted along it
T7 sequence (P24394 26-232 E70R): as the sequence (P24394 26-232 L68G) above, with G43L, E45R counted along it
T5 sequence (P24394 26-232 L67G): as the sequence (P24394 26-232 L68G) above, with L42G, G43L counted along it
T4 sequence (P24394 26-232 F66A): as the sequence (P24394 26-232 L68G) above, with F41A, G43L counted along it
T9 sequence (P24394 26-232 Q107G): as the sequence (P24394 26-232 L68G) above, with G43L, Q82G counted along it
T15 sequence (P24394 26-232 S193R): as the sequence (P24394 26-232 L68G) above, with G43L, S168R counted along it

B1: anti-human IL-4Rα antibody Ab1 (antibody, human IgG4 S228P, kappa)
heavy: QVQLVESGGGLVQPGGSLRLSCVASGFTFSHSSMNWVRQAPGKGLEWVSYISRATGAVYYADSVKGRFTISRDNAKNSLYLQMNSLRDEDTAVYYCAREPVFDYWGQGTLVTVSSASTKGPCVFPLAPCSRSTSESTAALGCLVKDYFPEPVTVSWNSGALTSGVHTFPAVLQSSGLYSLSSVVTVPSSSLGTKTYTCNVDHKPSNTKVDKRVESKYGPPCPPCPAPEFLGGPSVFLFPPKPKDTLMISRTPEVTCVVVDVSQEDPEVKFNWYVDGVEVHNAKTKPREEQFNSTYRVVSVLTVLHQDWLNGKEYKCKVSNKGLPSSIEKTISKAKGQPREPQVYTLPPSREEMTKNQVSLTCLVKGFYPSDICVEWESNGQPENNYKTTPPVLDSDGSFFLYSRLTVDKSRWQQGNVFSCSVMHEALHNHYTQKSLSLSLG
light: DIQMTQSPSAMSASVGDRVTITCRASQDISNYLAWFQQKPGKVPTRLIYAASSLQSGVPSRFSGSGSGTEFTLTISSLQPEDFATYYCLQWSSYPRTFGQGTKVEIKRTVAAPSVFIFPPSDEQLKSGTASVVCLLNNFYPREAKVQWKVDNALQSGNSQESVTEQDSKDSTYSLSSTLTLSKADYEKHKVYACEVTHQGLSSPVTKSFNRGEC
notes: human kappa light chain; also called anti-human IL-4Rα Ab1; unconjugated Ab1
With B1 as the binder, how does the “ELISA (OD450)” value [1] read?
The value was 1.61 OD450.

And the “ELISA (OD450)” value [2]?
The value was 1.5 OD450.

What about the “ELISA (OD450)” value [3] of the same binder?
The value was 1.52 OD450.

What about the “ELISA (OD450)” value [4] of the same binder?
The value was 1.54 OD450.

And the “ELISA (OD450)” value [5]?
Its value is 1.48 OD450.

And the “ELISA (OD450)” value [6]?
The value was 1.7 OD450.

What about the “ELISA (OD450)” value [7] of the same binder?
The value was 1.86 OD450.

And the “ELISA (OD450)” value [8]?
Its value is 1.7 OD450.

What about the “ELISA (OD450)” value [9] of the same binder?
The value was 1.53 OD450.

What about the “ELISA (OD450)” value [10] of the same binder?
Its value is 1.56 OD450.

And the “ELISA (OD450)” value [11]?
The value was 1.84 OD450.

What about the “ELISA (OD450)” value [12] of the same binder?
Its value is 1.7 OD450.

And the “ELISA (OD450)” value [13]?
The value was 1.61 OD450.

And the “ELISA (OD450)” value [14]?
Its value is 1.6 OD450.

What about the “ELISA (OD450)” value [15] of the same binder?
Its value is 1.71 OD450.

And the “ELISA (OD450)” value [16]?
The value was 1.75 OD450.

— patent publication US20240100176A1 (Eli Lilly, published 2024)
